B1: human haptoglobin Hp2 (residue 1-406) (natural protein)
chain: VDSGNDVTDIADDGCPKPPEIAHGYVEHSVRYQCKNYYKLRTEGDGVYTLNDKKQWINKAVGDKLPECEADDGCPKPPEIAHGYVEHSVRYQCKNYYKLRTEGDGVYTLNNEKQWINKAVGDKLPECEAVCGKPKNPANPVQRILGGHLDAKGSFPWQAKMVSHHNLTTGATLINEQWLLTTAKNLFLNHSENATAKDIAPTLTLYVGKKQLVEIEKVVLHPNYSQVDIGLIKLKQKVSVNERVMPICLPSKDYAEVGRVGYVSGWGRNANFKFTDHLKYVMLPVADQDQCIRHYEGSTVPEKKTPKSPVGVQPILNEHTFCAGMSKYQEDTCYGDAGSAFAVHDLEEDTWYATGILSFDKSCAVAEYGVYVKVTSIQDWVQKTIAEN
B2: CD163 ectodomain (human CD163, residue 1-1050) (receptor)
chain: not shown
B3: hemoglobin-haptoglobin 2 complex (Hb-Hp2) (complex)
chain 1: not shown
chain 2: not shown
chain 3: B1 chain
B4: hemoglobin-haptoglobin 1 complex (Hb-Hp1) (complex)
chain 1: not shown
chain 2: not shown
chain 3: VDSGNDVTDIADDGCPKPPEIAHGYVEHSVRYQCKNYYKLRTEGDGVYTLNNEKQWINKAVGDKLPECEAVCGKPKNPANPVQRILGGHLDAKGSFPWQAKMVSHHNLTTGATLINEQWLLTTAKNLFLNHSENATAKDIAPTLTLYVGKKQLVEIEKVVLHPNYSQVDIGLIKLKQKVSVNERVMPICLPSKDYAEVGRVGYVSGWGRNANFKFTDHLKYVMLPVADQDQCIRHYEGSTVPEKKTPKSPVGVQPILNEHTFCAGMSKYQEDTCYGDAGSAFAVHDLEEDTWYATGILSFDKSCAVAEYGVYVKVTSIQDWVQKTIAEN
B5: human hemoglobin (complex)
chain 1: not shown
chain 2: not shown

Data set [1] concerns the molecule itself. In words: SEC.
Data set [2] concerns the molecule itself. The data set is described as follows: AUC.
Data set [3] deals with the molecule itself. The data set is described as follows: AUC. This is another data set of the same source.
Data set [4] deals with the molecule itself. The data set is described as follows: SEC. The source holds these as a separate data set. (In general: In gel filtration, larger molecules generally elute earlier.)
Data set [5] has as its target B2. The data set is described as follows: SEC.
Data set [6] concerns the target B2. The data set is described as follows: AUC.
The next data set deals with CD163 ectodomain E359A (human, UniProt Q86VB7 42-1050, E359A). In words: pull-down.
In data set [7] the target is CD163 ectodomain D292A/D293A (human, UniProt Q86VB7 42-1050, D292A | D293A). In words: pull-down.
Data set [8] concerns the target T1, human haptoglobin Hp1 (residue 1-347) (human, UniProt P00738-2 19-347).
T1 sequence: B4 chain 3
The data set is described as follows: SEC.

For data set [9], the target named is B1. The data set is described as follows: SEC.

Five molecules from PMC12279954 (Nature Communications, 2025) can be followed below.

Broadly, the stoichiometry N is the number of molecules, sites or subunits per partner or assembly.

Sequence of CD163 ectodomain E359A (Q86VB7 42-1050 E359A): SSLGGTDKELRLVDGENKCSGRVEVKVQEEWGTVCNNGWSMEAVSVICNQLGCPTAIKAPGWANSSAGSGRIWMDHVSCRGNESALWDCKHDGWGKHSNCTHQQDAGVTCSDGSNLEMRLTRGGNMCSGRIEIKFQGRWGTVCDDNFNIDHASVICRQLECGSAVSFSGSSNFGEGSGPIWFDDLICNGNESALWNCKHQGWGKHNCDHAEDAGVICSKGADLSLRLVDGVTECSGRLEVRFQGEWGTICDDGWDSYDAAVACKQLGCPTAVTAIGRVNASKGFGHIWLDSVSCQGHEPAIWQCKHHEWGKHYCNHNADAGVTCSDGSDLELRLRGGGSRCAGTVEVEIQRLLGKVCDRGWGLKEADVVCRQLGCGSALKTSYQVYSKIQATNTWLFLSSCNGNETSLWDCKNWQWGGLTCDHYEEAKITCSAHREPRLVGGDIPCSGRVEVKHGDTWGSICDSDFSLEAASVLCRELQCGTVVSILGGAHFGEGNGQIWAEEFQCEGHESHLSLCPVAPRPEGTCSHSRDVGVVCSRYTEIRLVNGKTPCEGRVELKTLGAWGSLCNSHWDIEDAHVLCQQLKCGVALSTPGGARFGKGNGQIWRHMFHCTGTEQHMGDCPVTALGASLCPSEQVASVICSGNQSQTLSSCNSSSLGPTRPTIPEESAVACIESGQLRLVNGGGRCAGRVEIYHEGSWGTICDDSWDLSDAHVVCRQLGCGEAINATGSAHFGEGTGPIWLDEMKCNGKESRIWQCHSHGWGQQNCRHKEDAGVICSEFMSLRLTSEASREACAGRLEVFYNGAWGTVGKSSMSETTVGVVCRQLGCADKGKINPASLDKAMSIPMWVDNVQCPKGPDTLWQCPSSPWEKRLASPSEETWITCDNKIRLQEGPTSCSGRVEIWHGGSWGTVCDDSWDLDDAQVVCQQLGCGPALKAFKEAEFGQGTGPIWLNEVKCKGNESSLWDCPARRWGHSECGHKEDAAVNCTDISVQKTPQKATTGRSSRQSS
Sequence of CD163 ectodomain D292A/D293A (Q86VB7 42-1050 D292A/D293A): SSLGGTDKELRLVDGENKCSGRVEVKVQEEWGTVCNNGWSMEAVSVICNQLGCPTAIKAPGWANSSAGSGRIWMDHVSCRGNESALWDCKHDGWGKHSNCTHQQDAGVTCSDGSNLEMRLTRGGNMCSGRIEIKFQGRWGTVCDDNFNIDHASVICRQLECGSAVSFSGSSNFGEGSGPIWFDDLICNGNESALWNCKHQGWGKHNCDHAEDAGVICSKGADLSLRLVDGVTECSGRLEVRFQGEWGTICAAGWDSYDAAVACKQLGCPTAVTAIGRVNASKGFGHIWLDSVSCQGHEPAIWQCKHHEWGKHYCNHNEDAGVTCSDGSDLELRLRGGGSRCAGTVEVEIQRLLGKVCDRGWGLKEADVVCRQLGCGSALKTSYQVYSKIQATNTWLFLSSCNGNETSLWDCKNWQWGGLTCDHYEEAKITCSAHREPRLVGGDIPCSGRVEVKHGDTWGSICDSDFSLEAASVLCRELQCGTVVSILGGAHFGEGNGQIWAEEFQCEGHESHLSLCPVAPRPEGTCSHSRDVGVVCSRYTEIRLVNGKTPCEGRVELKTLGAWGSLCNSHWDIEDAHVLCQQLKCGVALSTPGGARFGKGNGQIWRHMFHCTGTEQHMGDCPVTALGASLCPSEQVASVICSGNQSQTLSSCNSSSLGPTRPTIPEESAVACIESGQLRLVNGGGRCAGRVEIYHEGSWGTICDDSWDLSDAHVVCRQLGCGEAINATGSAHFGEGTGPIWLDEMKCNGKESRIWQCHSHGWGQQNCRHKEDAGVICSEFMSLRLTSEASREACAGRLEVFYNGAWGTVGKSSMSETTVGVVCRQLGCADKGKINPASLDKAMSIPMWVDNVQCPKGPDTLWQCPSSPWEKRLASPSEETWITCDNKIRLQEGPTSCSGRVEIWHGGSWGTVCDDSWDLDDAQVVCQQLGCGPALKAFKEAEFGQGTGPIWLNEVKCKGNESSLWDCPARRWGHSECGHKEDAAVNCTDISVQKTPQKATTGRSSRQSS

As to B1, the binding result in the data set “SEC [1]” was “binds”.

For the molecule B2, the entries for the “stoichiometry N” value in “AUC [2]”, in the data set “AUC [3]” and in the data set “SEC [4]” were 2, 3 and around 3, respectively.

With B3, in data set [5], the binding result is reported as “binds”.

Regarding B4, the binding result (in data set [6]; with CD163 ectodomain E359A; in data set [7]) was “binds” throughout.

Take B5: the binding result in data set [8] and in [9] was “binds” throughout.
